# Test results reported in patent US20250388666A1 (BRIGHAM AND WOMEN S HOSPITAL, published 2025).
# T1: CEACAM1 (Sino Biological) (human, UniProt P13688 35-428, limits assumed)
# T1 construct: may be the same as CEACAM1-HIS; also called hCEACAM1; biotinylated soluble CEACAM1
# T1 sequence: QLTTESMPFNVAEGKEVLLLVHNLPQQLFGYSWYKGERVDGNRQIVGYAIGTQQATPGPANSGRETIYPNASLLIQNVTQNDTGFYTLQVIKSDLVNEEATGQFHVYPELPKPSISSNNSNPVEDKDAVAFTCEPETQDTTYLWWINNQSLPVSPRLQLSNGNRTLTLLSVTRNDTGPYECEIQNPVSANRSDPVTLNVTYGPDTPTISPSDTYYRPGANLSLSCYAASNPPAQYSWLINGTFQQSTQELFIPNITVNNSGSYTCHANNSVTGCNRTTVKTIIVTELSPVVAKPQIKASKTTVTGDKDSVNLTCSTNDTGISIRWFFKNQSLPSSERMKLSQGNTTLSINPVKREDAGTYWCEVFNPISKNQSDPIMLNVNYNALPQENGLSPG
# Target: T1, CEACAM1 (Sino Biological)
# Test: SPR single-cycle
# Description: To assess the binding of the humanized affinity matured IgGs, single cycle kinetics analysis was performed on crude supernatants using a Biacore T200 running Biacore T200 Control Software V2.0.1 and Biacore T200 Evaluation Software V3.0 (Uppsala, Sweden). Antibodies were diluted in HBS-P+ (GE Healthcare) to a final concentration of […]. At the start of each cycle, antibodies were loaded onto Fc2, Fc3 and Fc4 of the Protein A chip (GE Healthcare). IgGs were captured at a flow rate of 10 μl/min to give an immobilization level (RL) of ˜100 RU (a level calculated to obtain an Rmax of ˜50-150 RU once the analyte is bound). The surface was then allowed to stabilize. Single cycle kinetics data was obtained with CEACAM1 as the analyte at a flow rate of […] to minimize any potential mass transfer effects. Multiple repeats with the parent (VH2 N56Q/Vκ4 S27(f)A) antibody were performed to check the stability of the surface and analyte over the kinetic cycles. The signal from the reference channel Fc1 (no antibody) was subtracted from that of Fc2, Fc3 and Fc4 to correct for differences in non-specific binding to the reference surface. A three point, two-fold dilution range from 25 nM to 100 nM CEACAM 1 without regeneration between each concentration was used. The signal from each antibody blank run (no CEACAM1) was subtracted to correct for differences in surface stability. The association phase for the three injections of increasing concentrations of CEACAM1 was monitored for 200 seconds each time and a single dissociation phase was measured for 300 seconds following the last injection of CEACAM1. Regeneration of the Protein A surface was conducted using two injections of 10 mM glycine-HCL pH 1.5 followed by a stabilization period of 240 seconds.
Binder,Kd [µM],fold better than Parent (KD) [fold]
"He6/L1 (antibody, IgG4, V domains shown, IgG4 S241P, kappa) VH: EVQLLESGGGLVQPGGSLRLSCAASGFSFSDYYLYWVRQAPGKGLEWVATISVGGGQTSYADSVKGRFTISRDNSKNTLYLQMNSLRAEDTAMYYCARARTYGPAWFAYWGQGTLVTVSS VL: DIVMTQSPDSLAVSLGERATINCKSSQSLLNSANQKNYLAWYQQKPGQPPKLLIYFASTRESGVPDRFSGSGSGTDFTLTISSLQAEDVAVYYCQSHYPFYYTFGGGTKVEIK",0.098,1.62
"He4/Parent VL (antibody, IgG4, V domains shown, IgG4 S241P, kappa) VH: EVQLLESGGGLVQPGGSLRLSCAASGFSFSDYYLYWVRQAPGKGLEWVATISVGGGQTSYADSVKGRFTISRDNSKNTLYLQMNSLRAEDTAMYYCTRALYYGPAWFAYWGQGTLVTVSS VL: not shown",0.155,1.03
"He4/L17 (antibody, IgG4, V domains shown, IgG4 S241P, kappa) VH: EVQLLESGGGLVQPGGSLRLSCAASGFSFSDYYLYWVRQAPGKGLEWVATISVGGGQTSYADSVKGRFTISRDNSKNTLYLQMNSLRAEDTAMYYCTRALYYGPAWFAYWGQGTLVTVSS VL: DIVMTQSPDSLAVSLGERATINCKSSQSLLNSANQKNYLAWYQQKPGQPPKLLIYFASTRESGVPDRFSGSGSGTDFTLTISSLQAEDVAVYYCQSHYPYPYTFGGGTKVEIK",0.062,2.55
"He6/L4#2 (antibody, IgG4, V domains shown, IgG4 S241P, kappa) VH: EVQLLESGGGLVQPGGSLRLSCAASGFSFSDYYLYWVRQAPGKGLEWVATISVGGGQTSYADSVKGRFTISRDNSKNTLYLQMNSLRAEDTAMYYCARARTYGPAWFAYWGQGTLVTVSS VL: DIVMTQSPDSLAVSLGERATINCKSSQSLLNSANQKNYLAWYQQKPGQPPKLLIYFASTRESGVPDRFSGSGSGTDFTLTISSLQAEDVAVYYCQSHYPYPYTFGGGTKVEIK",0.146,3.78
"He4/L18 (antibody, IgG4, V domains shown, IgG4 S241P, kappa) VH: EVQLLESGGGLVQPGGSLRLSCAASGFSFSDYYLYWVRQAPGKGLEWVATISVGGGQTSYADSVKGRFTISRDNSKNTLYLQMNSLRAEDTAMYYCTRALYYGPAWFAYWGQGTLVTVSS VL: DIVMTQSPDSLAVSLGERATINCKSSQSLLNSANQKNYLAWYQQKPGQPPKLLIYFASTRESGVPDRFSGSGSGTDFTLTISSLQAEDVAVYYCQSHFPYPFTFGGGTKVEIK",0.055,2.89
"He6/L5 (antibody, IgG4, V domains shown, IgG4 S241P, kappa) VH: EVQLLESGGGLVQPGGSLRLSCAASGFSFSDYYLYWVRQAPGKGLEWVATISVGGGQTSYADSVKGRFTISRDNSKNTLYLQMNSLRAEDTAMYYCARARTYGPAWFAYWGQGTLVTVSS VL: DIVMTQSPDSLAVSLGERATINCKSSQSLLNSANQKNYLAWYQQKPGQPPKLLIYFASTRESGVPDRFSGSGSGTDFTLTISSLQAEDVAVYYCQSHYPFAFTFGGGTKVEIK",0.084,1.89
"He6/L6 (antibody, IgG4, V domains shown, IgG4 S241P, kappa) VH: EVQLLESGGGLVQPGGSLRLSCAASGFSFSDYYLYWVRQAPGKGLEWVATISVGGGQTSYADSVKGRFTISRDNSKNTLYLQMNSLRAEDTAMYYCARARTYGPAWFAYWGQGTLVTVSS VL: DIVMTQSPDSLAVSLGERATINCKSSQSLLNSANQKNYLAWYQQKPGQPPKLLIYFASTRESGVPDRFSGSGSGTDFTLTISSLQAEDVAVYYCQSHYPFSFTFGGGTKVEIK",0.089,1.78
"He4/L19 (antibody, IgG4, V domains shown, IgG4 S241P, kappa) VH: EVQLLESGGGLVQPGGSLRLSCAASGFSFSDYYLYWVRQAPGKGLEWVATISVGGGQTSYADSVKGRFTISRDNSKNTLYLQMNSLRAEDTAMYYCTRALYYGPAWFAYWGQGTLVTVSS VL: DIVMTQSPDSLAVSLGERATINCKSSQSLLNSANQKNYLAWYQQKPGQPPKLLIYFASTRESGVPDRFSGSGSGTDFTLTISSLQAEDVAVYYCQSHIYPNFTFGGGTKVEIK",0.09,1.77

# The remaining binders from weak to strong by Kd, led by results:
Kd [µM],fold better than Parent (KD) [fold],Binder
0.155,1.03,"He6/L4 #1 (antibody, IgG4, V domains shown, IgG4 S241P, kappa) VH: EVQLLESGGGLVQPGGSLRLSCAASGFSFSDYYLYWVRQAPGKGLEWVATISVGGGQTSYADSVKGRFTISRDNSKNTLYLQMNSLRAEDTAMYYCARARTYGPAWFAYWGQGTLVTVSS VL: DIVMTQSPDSLAVSLGERATINCKSSQSLLNSANQKNYLAWYQQKPGQPPKLLIYFASTRESGVPDRFSGSGSGTDFTLTISSLQAEDVAVYYCQSHFPYYYTFGGGTKVEIK"
0.127,4.34,"He4/L4#2 (antibody, IgG4, V domains shown, IgG4 S241P, kappa) VH: EVQLLESGGGLVQPGGSLRLSCAASGFSFSDYYLYWVRQAPGKGLEWVATISVGGGQTSYADSVKGRFTISRDNSKNTLYLQMNSLRAEDTAMYYCTRALYYGPAWFAYWGQGTLVTVSS VL: DIVMTQSPDSLAVSLGERATINCKSSQSLLNSANQKNYLAWYQQKPGQPPKLLIYFASTRESGVPDRFSGSGSGTDFTLTISSLQAEDVAVYYCQSHYPYPYTFGGGTKVEIK"
0.104,1.53,"He6/L2 (antibody, IgG4, V domains shown, IgG4 S241P, kappa) VH: EVQLLESGGGLVQPGGSLRLSCAASGFSFSDYYLYWVRQAPGKGLEWVATISVGGGQTSYADSVKGRFTISRDNSKNTLYLQMNSLRAEDTAMYYCARARTYGPAWFAYWGQGTLVTVSS VL: DIVMTQSPDSLAVSLGERATINCKSSQSLLNSANQKNYLAWYQQKPGQPPKLLIYFASTRESGVPDRFSGSGSGTDFTLTISSLQAEDVAVYYCQSHYPFPYTFGGGTKVEIK"
0.094,1.69,"He6/L3 (antibody, IgG4, V domains shown, IgG4 S241P, kappa) VH: EVQLLESGGGLVQPGGSLRLSCAASGFSFSDYYLYWVRQAPGKGLEWVATISVGGGQTSYADSVKGRFTISRDNSKNTLYLQMNSLRAEDTAMYYCARARTYGPAWFAYWGQGTLVTVSS VL: DIVMTQSPDSLAVSLGERATINCKSSQSLLNSANQKNYLAWYQQKPGQPPKLLIYFASTRESGVPDRFSGSGSGTDFTLTISSLQAEDVAVYYCQSHFPFPFTFGGGTKVEIK"
0.09,1.77,"He4/L20 (antibody, IgG4, V domains shown, IgG4 S241P, kappa) VH: EVQLLESGGGLVQPGGSLRLSCAASGFSFSDYYLYWVRQAPGKGLEWVATISVGGGQTSYADSVKGRFTISRDNSKNTLYLQMNSLRAEDTAMYYCTRALYYGPAWFAYWGQGTLVTVSS VL: DIVMTQSPDSLAVSLGERATINCKSSQSLLNSANQKNYLAWYQQKPGQPPKLLIYFASTRESGVPDRFSGSGSGTDFTLTISSLQAEDVAVYYCQSHFPYPLTFGGGTKVEIK"
0.083,1.91,"He4/L4 #1 (antibody, IgG4, V domains shown, IgG4 S241P, kappa) VH: EVQLLESGGGLVQPGGSLRLSCAASGFSFSDYYLYWVRQAPGKGLEWVATISVGGGQTSYADSVKGRFTISRDNSKNTLYLQMNSLRAEDTAMYYCTRALYYGPAWFAYWGQGTLVTVSS VL: DIVMTQSPDSLAVSLGERATINCKSSQSLLNSANQKNYLAWYQQKPGQPPKLLIYFASTRESGVPDRFSGSGSGTDFTLTISSLQAEDVAVYYCQSHFPYYYTFGGGTKVEIK"
0.072,2.22,"He4/L6 (antibody, IgG4, V domains shown, IgG4 S241P, kappa) VH: EVQLLESGGGLVQPGGSLRLSCAASGFSFSDYYLYWVRQAPGKGLEWVATISVGGGQTSYADSVKGRFTISRDNSKNTLYLQMNSLRAEDTAMYYCTRALYYGPAWFAYWGQGTLVTVSS VL: DIVMTQSPDSLAVSLGERATINCKSSQSLLNSANQKNYLAWYQQKPGQPPKLLIYFASTRESGVPDRFSGSGSGTDFTLTISSLQAEDVAVYYCQSHYPFSFTFGGGTKVEIK"
0.068,2.36,"He4/L5 (antibody, IgG4, V domains shown, IgG4 S241P, kappa) VH: EVQLLESGGGLVQPGGSLRLSCAASGFSFSDYYLYWVRQAPGKGLEWVATISVGGGQTSYADSVKGRFTISRDNSKNTLYLQMNSLRAEDTAMYYCTRALYYGPAWFAYWGQGTLVTVSS VL: DIVMTQSPDSLAVSLGERATINCKSSQSLLNSANQKNYLAWYQQKPGQPPKLLIYFASTRESGVPDRFSGSGSGTDFTLTISSLQAEDVAVYYCQSHYPFAFTFGGGTKVEIK"
0.066,2.41,"He6/L16 (antibody, IgG4, V domains shown, IgG4 S241P, kappa) VH: EVQLLESGGGLVQPGGSLRLSCAASGFSFSDYYLYWVRQAPGKGLEWVATISVGGGQTSYADSVKGRFTISRDNSKNTLYLQMNSLRAEDTAMYYCARARTYGPAWFAYWGQGTLVTVSS VL: DIVMTQSPDSLAVSLGERATINCKSSQSLLNSANQKNYLAWYQQKPGQPPKLLIYFASTRESGVPDRFSGSGSGTDFTLTISSLQAEDVAVYYCQSHYPYPFTFGGGTKVEIK"
